Several values for one entry are separate records, joined by “and”; a condition that tells them apart may be missing. Identical values can stand only once. Ends that are not written are not given here.
Columns and labels:
Format in all cases: physicochemical
[1] = Retention of peptides 2DOS-1 to 2DOS-16 on a hydrophobic surface (polypropylene microtitre plate wells), water wash; conditions: 400V scan; for Initial fluorescence (×10^3): 100 μl of 10 μM peptide before drying and washing; for Recovered fluorescence (×10^3): dried, washed ten times with 250 μl water, resuspended
Method: The retention of peptides 2DOS-1 to 2DOS-16 on a hydrophobic surface (the wells of a polypropylene microtitre plate) was then investigated.
(§1) 10 mM tris-HCl (pH 8.0) in 50% (v/v) aqueous acetonitrile was used as the solvent for the peptides and for TAMRA.
100 μl aliquots of 10 μM peptides 2DOS-1 to 2DOS-16 and 10 μM TAMRA were placed in the wells of a Costar microtitre plate as shown in FIG. 13:
(§2) The microtitre plate was imaged at 200 μm resolution on a Typhoon Trio Plus variable mode imager (Amersham Biosciences) with the green (532 nm) laser and the 580 BP 30 filter at the PMT voltages indicated below and at normal sensitivity. The scan height was set at +3 mm and the sample was pressed during scanning.
The peptides were allowed to evaporate to dryness overnight in the dark and the microtitre plate was again scanned as described above.
The wells were then washed ten times with 250 μl of water.
The residual surface-bound peptides were finally resuspended in 100 μl of 10 mM tris-HCl (pH 8.0) in 50% (v/v) aqueous acetonitrile and the microtitre plate was again scanned as described above.
(§3) The fluorescence images were analysed using ImageQuant TL v2003.03 (Amersham Biosciences).
Quantification data (using the data from the 400V scan) is given in Table 2 and shown graphically in FIG. 15.

[2] = Retention of peptides in V-bottomed polypropylene wells; conditions: V-bottom wells, 500V scan; for Untreated fluorescence: unwashed; for Retained fluorescence: washed 15 minutes in 1 M NaCl in 10 mM tris-HCl (pH 8.0)
Method: (§4) The retention of peptides 2DOS-1 to 2DOS-16 (see above) on polypropylene wells of different geometries was investigated:
as §1
(§5) 1 μl aliquots of 10 μM peptides 2DOS-1 to 2DOS-16 and 10 μM TAMRA were pipetted into the wells of a Costar V-bottomed polypropylene microtitre plate and a Greiner flat-bottomed polypropylene microtitre plate according to the following scheme as shown in FIG. 22:
(§6) The peptide samples were allowed to evaporate to dryness in the dark.
(§7) The peptide samples in the top two rows of the microtitre plates were then incubated for 15′ minutes at room temperature in 250 μl of 1 M NaCl in 10 mM tris-HCl (pH 8.0).
(§8) After incubation, the wash buffer was pipetted up and down eight times in the well before removing the supernatant.
(§9) The washed and untreated peptide samples were then resuspended in 50 μl of 10 mM tris-HCl (pH 8.0) in 50% (v/v) aqueous acetonitrile.
as §2, with “plates were” for “plate was”, “the platen” for “+3 mm”, “during,” for “during”
as §3

[3] = Retention of peptides in flat-bottomed polypropylene wells; conditions: flat-bottom wells, 500V scan; for Untreated fluorescence: unwashed; for Retained fluorescence: washed 15 minutes in 1 M NaCl in 10 mM tris-HCl (pH 8.0)
Method: as §4, §1, §5, §6, §7, §8, §9
as §2, with “plates were” for “plate was”, “the platen” for “+3 mm”, “during,” for “during”
as §3

[4] = Retention of peptides on Costar polypropylene V-bottom wells; conditions: 400V scan; for Untreated fluorescence: unwashed; for Retained fluorescence: washed 15 minutes in 1 M NaCl in 10 mM tris-HCl (pH 8.0)
Method: (§10) The retention of peptides 2DOS-1 to 2DOS-16 (see above) on polypropylene and polystyrene surfaces was compared:
(§11) 5 mM tris-HCl (pH 8.0) in 75% (v/v) aqueous acetonitrile was used as the solvent for the peptides and for TAMRA.
(§12) 20 μl aliquots of 5 μM peptides 2DOS-1 to 2DOS-16 and 5 μM TAMRA were pipetted into the wells of a Costar V-bottomed polypropylene microtitre plate, a Greiner V-bottomed polypropylene microtitre plate, and a Greiner V-bottomed polystyrene microtitre plate according to the scheme shown in FIG. 26:
as §6
(§13) The peptide samples in the top two rows of the microtitre plates were then incubated for 15 minutes at room temperature in 250 μl of 1 M NaCl in 10 mM tris-HCl (pH 8.0).
as §8, §9
as §2, with “plates were” for “plate was”
as §3

[5] = Retention of peptides on Greiner polypropylene V-bottom wells; conditions: 400V scan; for Untreated fluorescence: unwashed; for Retained fluorescence: washed 15 minutes in 1 M NaCl in 10 mM tris-HCl (pH 8.0)
Method: as §10, §11, §12, §6, §13, §8, §9
as §2, with “plates were” for “plate was”
as §3

[6] = Retention of peptides on Greiner polystyrene V-bottom wells; conditions: 400V scan; for Untreated fluorescence: unwashed; for Retained fluorescence: washed 15 minutes in 1 M NaCl in 10 mM tris-HCl (pH 8.0)
Method: as §10, §11, §12, §6, §13, §8, §9
as §2, with “plates were” for “plate was”
as §3

[7] = Retention of peptides P1-1 to P1-5 on a polypropylene sheet after successive washes; conditions: for Average fluorescence, control array / Corrected signal, control array: unwashed control array
Method: Further experiments were undertaken to investigate the retention of peptides P1-1 to, P1-5 and P2-1 to P2-2, shown in Table 3, on a polypropylene surface.
The polypropylene sheet was wiped with 50% (v/v) aqueous acetonitrile prior to use.
8× replicate 20 nl volumes of 1 μM peptides P1-1 to P1-5 and P2-1 to P2-2 and TAMRA in dimethyl sulphoxide (DMSO) were dispensed at 1 mm spacing to a 3″×1″×1 mm polypropylene sheet using the Piezorray system (PerkinElmer LAS). 500 drops were pre-dispensed using the ‘side shoot’ option and the tuning was set to 72V for 30 μs.
The slide was imaged at 10 μm resolution on a Typhoon Trio Plus variable mode imager (Amersham Biosciences) with the green (532 nm) laser and the 580 BP 30 filter at a PMT voltage of 600 V and at normal sensitivity. The scan height was set at the platen and the samples were pressed during scanning. The fluorescence image was analysed using ImageQuant TL v2003.03 (Amersham Biosciences).
The lower half of the slide (containing the test array) was then washed in 100 ml of 1 M NaCl containing 10 mM tris-HCl (pH 8.0) for one minute and were re-scanned as described above.
The same half of the slide was then washed for a second time in 100 ml of 1 M NaCl containing 10 mM tris-HCl (pH 8.0) for 30 minutes and re-scanned as described above.
The same half of the slide was then washed for a third time in 100 ml of water for 30 minutes and re-scanned as described above.

[8] = after first wash scan, slide background subtracted
[9] = after first wash: 1 M NaCl/10 mM tris-HCl (pH 8.0), one minute
[10] = after first wash: 1 M NaCl/10 mM tris-HCl (pH 8.0), one minute, background subtracted
[11] = after second wash scan, background subtracted
[12] = after second wash: 1 M NaCl/10 mM tris-HCl (pH 8.0), 30 minutes
[13] = after second wash: 1 M NaCl/10 mM tris-HCl (pH 8.0), 30 minutes, background subtracted
[14] = after third wash scan, background subtracted
[15] = after third wash: water, 30 minutes
[16] = after third wash: water, 30 minutes, background subtracted

N-TAMRA-Asp-Ser- Asp-Ser-Asp-Ser- Asp-C ({TAMRA}-DSDSDSD) [Peptide 2DOS-15]
Initial fluorescence (×10^3) [1]: 30,845 ×10^3
Recovered fluorescence (×10^3) [1]: 2 ×10^3
Percent retention [2]: 1%
Untreated fluorescence [2]: 10,493,100
Retained fluorescence [2]: 122,851
Percent retention [3]: 1%
Untreated fluorescence [3]: 15,290,885
Retained fluorescence [3]: 104,523
Percent retention [4]: 1%
Untreated fluorescence [4]: 6,488,130
Retained fluorescence [4]: 50,584
Percent retention [5]: 1%
Untreated fluorescence [5]: 4,771,265
Retained fluorescence [5]: 65,142
Percent retention [6]: 1%
Untreated fluorescence [6]: 868,334
Retained fluorescence [6]: 5,116

N-TAMRA-Ser-Asp- Ser-Ala-Ser-Ser- Ser-Lys-Ser-C ({TAMRA}-SDSASSSKS) [Peptide 2DOS-3]
Initial fluorescence (×10^3) [1]: 32,913 ×10^3
Recovered fluorescence (×10^3) [1]: 8 ×10^3
Percent retention [2]: 22%
Untreated fluorescence [2]: 9,020,171
Retained fluorescence [2]: 1,951,694
Percent retention [3]: 20%
Untreated fluorescence [3]: 14,152,875
Retained fluorescence [3]: 2,836,015
Percent retention [4]: 12%
Untreated fluorescence [4]: 5,660,618
Retained fluorescence [4]: 673,940
Percent retention [5]: 10%
Untreated fluorescence [5]: 3,583,352
Retained fluorescence [5]: 342,889
Percent retention [6]: 5%
Untreated fluorescence [6]: 744,747
Retained fluorescence [6]: 37,388

TAMRA-F-G-F-G-F-G-F-S-F-A-F-D-F-G-F ({TAMRA}-FGFGFGFSFAFDFGF) [Peptide P1-3]
Average fluorescence, control array ([7]; after first wash scan): 192,743,469
Corrected signal, control array [7, 8]: 46,051,796
Average fluorescence, test array [7, 9]: 171,197,973
Corrected signal, test array [7, 10]: 16,700,014
Average fluorescence, control array ([7]; after second wash scan): 187,310,655
Corrected signal, control array [7, 11]: 50,030,806
Average fluorescence, test array [7, 12]: 148,725,456
Corrected signal, test array [7, 13]: 16,278,152
Average fluorescence, control array ([7]; after third wash scan): 184,219,147
Corrected signal, control array [7, 14]: 50,311,907
Average fluorescence, test array [7, 15]: 125,717,642
Corrected signal, test array [7, 16]: 1,420,417

TAMRA-F-G-F-G-F-G-F-G-F-S-F-A-F-D-F-G-F ({TAMRA}-FGFGFGFGFSFAFDFGF) [Peptide P1-4]
Average fluorescence, control array ([7]; after first wash scan): 187,287,630
Corrected signal, control array [7, 8]: 40,595,958
Average fluorescence, test array [7, 9]: 189,823,310
Corrected signal, test array [7, 10]: 35,325,352
Average fluorescence, control array ([7]; after second wash scan): 179,942,418
Corrected signal, control array [7, 11]: 42,662,569
Average fluorescence, test array [7, 12]: 159,100,527
Corrected signal, test array [7, 13]: 26,653,223
Average fluorescence, control array ([7]; after third wash scan): 176,102,487
Corrected signal, control array [7, 14]: 42,195,247
Average fluorescence, test array [7, 15]: 135,681,173
Corrected signal, test array [7, 16]: 11,383,947

TAMRA [reference compound]
Percent retention [2]: 5% and 4% and 6%
Untreated fluorescence [2]: 12,610,993 and 15,392,751 and 17,471,866
Retained fluorescence [2]: 640,684 and 686,863 and 998,320
Untreated fluorescence [3]: 18,396,859 and 20,662,891 and 20,649,165
Percent retention [4]: 3%
Untreated fluorescence [4]: 11,786,211
Retained fluorescence [4]: 386,629
Percent retention [5]: 1%
Untreated fluorescence [5]: 6,199,206
Retained fluorescence [5]: 64,916
Percent retention [6]: 1%
Untreated fluorescence [6]: 1,051,154
Retained fluorescence [6]: 10,004

TAMRA-F-G-F-G-F-G-F-G-F-G-F-S-F-A-F-D-F-G-F ({TAMRA}-FGFGFGFGFGFSFAFDFGF) [Peptide P1-5]
Average fluorescence, control array ([7]; after first wash scan): 199,347,483
Corrected signal, control array [7, 8]: 52,655,810
Average fluorescence, test array [7, 9]: 201,991,732
Corrected signal, test array [7, 10]: 47,493,774
Average fluorescence, control array ([7]; after second wash scan): 190,847,825
Corrected signal, control array [7, 11]: 53,567,975
Average fluorescence, test array [7, 12]: 167,865,473
Corrected signal, test array [7, 13]: 35,418,169
Average fluorescence, control array ([7]; after third wash scan): 183,492,293
Corrected signal, control array [7, 14]: 49,585,053
Average fluorescence, test array [7, 15]: 147,812,043
Corrected signal, test array [7, 16]: 23,514,817
Retention on polypropylene surface (in words) ([7]; compared among P1-1 to P1-5, chain length of 19 amino acids): highest retention

TAMRA-F-G-F-S-F-A-F-D-F-G-F ({TAMRA}-FGFSFAFDFGF) [Peptide P1-1]
Average fluorescence, control array ([7]; after first wash scan): 244,263,013
Corrected signal, control array [7, 8]: 97,571,341
Average fluorescence, test array [7, 9]: 157,624,537
Corrected signal, test array [7, 10]: 3,126,578
Average fluorescence, control array ([7]; after second wash scan): 225,863,933
Corrected signal, control array [7, 11]: 88,584,083
Average fluorescence, test array [7, 12]: 127,216,792
Corrected signal, test array [7, 13]: −5,230,512
Average fluorescence, control array ([7]; after third wash scan): 218,342,010
Corrected signal, control array [7, 14]: 84,434,769
Average fluorescence, test array [7, 15]: 124,941,941
Corrected signal, test array [7, 16]: 644,716

TAMRA-F-G-F-G-F-S-F-A-F-D-F-G-F ({TAMRA}-FGFGFSFAFDFGF) [Peptide P1-2]
Average fluorescence, control array ([7]; after first wash scan): 200,280,129
Corrected signal, control array [7, 8]: 53,588,457
Average fluorescence, test array [7, 9]: 170,078,218
Corrected signal, test array [7, 10]: 15,580,260
Average fluorescence, control array ([7]; after second wash scan): 196,080,891
Corrected signal, control array [7, 11]: 58,801,042
Average fluorescence, test array [7, 12]: 135,695,639
Corrected signal, test array [7, 13]: 3,248,336
Average fluorescence, control array ([7]; after third wash scan): 185,727,868
Corrected signal, control array [7, 14]: 51,820,628
Average fluorescence, test array [7, 15]: 126,193,156
Corrected signal, test array [7, 16]: 1,895,931

Source: patent US20090192048A1, “METHOD OF PRODUCING A […] AGENT FOR BINDING A LIGAND” (priority 2005, published 2009)
